Reference: the supplement of paper PMC10126150
± gives the standard deviation of the averaged measurements.

Each sequence was assayed on ATP (assay: switch fluorescence ratio, 500 uM ATP over buffer (Cy3 cluster intensity, sum of 5 cycles each) (fold (ratio)); higher = stronger signal-on switching upon ATP binding; sequences stand for … in TCGTCGGCAGCGTCAGATGTGTATAAGAGACAGTTTTTTTTTTTTTTTTTTTTTTTTT…TC). Conditions: aptamer strand: ATP DNA aptamer (quencher-CACCTGGGGGAGTATTGCGGAGGAAGG + anchor), 100 nM annealed; ATP concentration: 500 uM.
Outline: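 After annealing to 100 nM quencher-labelled ATP aptamer, Cy3-labelled switching-strand clusters on a modified Illumina MiSeq flow-cell were imaged in selection buffer. A second image followed after 15 min with 500 uM ATP at 22 °C, and five such buffer/ATP cycles were done, each separated by NaOH stripping and re-annealing. The fluorescence ratio, averaged per switch-domain sequence, is summed target-cycle over summed buffer-cycle Cy3 intensity per cluster, with clusters outside 100-1000 RFU excluded.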
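Note: ATP exposure 15 min at 22 °C before imaging.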

Row | Sequence | switch fluorescence ratio
1 | GAAATAGGG | 0.983 ± 0.011
2 | TAAAATATGG | 1.06 ± 0.11
3 | TTTTGTGCTT | 1.04 ± 0.074
4 | GTAAGGATGT | 0.988 ± 0.038
5 | GCCTAATTGA | 0.98434 ± 0.00034
6 | TTTTACCTTT | 1 ± 0.032
7 | TAGGGGAGGT | 1.01 ± 0.016
8 | TAGGTCGGGA | 0.976 ± 0.02
9 | AATCATATGG | 0.969 ± 0.057
10 | ATTGAAGGCG | 1 ± 0.038
11 | GGTTACCGTG | 0.997 ± 0.033
12 | TGGGTAGGGT | 0.991 ± 0.036
13 | GCTCTGGCTA | 1.11 ± 0.022
14 | GCAGAGGGCA | 1.01 ± 0.049
15 | TATCAGTTCG | 0.9961 ± 0.006
16 | TGGGGGGAGA | 1.01 ± 0.045
17 | GCGACAAGAG | 1.03 ± 0.067
18 | TACTGCCAGC | 1.08 ± 0.054
19 | GAGGGAAGGT | 1.02 ± 0.02
20 | CCCTATTTTT | 1.01 ± 0.035
21 | TCGGTGGCGT | 1.02 ± 0.048
22 | GATGTGCGTG | 0.9956 ± 0.0091
23 | CAAGATGTTG | 0.987 ± 0.047
24 | TTGCACCGTT | 1.01 ± 0.038
25 | ATGTGAGGGG | 0.986 ± 0.029

Row | Sequence | switch fluorescence ratio
26 | TTCATCGGCT | 1.34 ± 0.51
27 | TTGTTAGTT | 1.02 ± 0.03
28 | TAAGCGGGCT | 0.973 ± 0.024
29 | CGGGGCAGGT | 1.01 ± 0.021
30 | CCATTTGTTG | 0.971 ± 0.02
31 | AGGCGGCAGC | 0.982 ± 0.02
32 | ATACAACCTG | 1.106 ± 0.0065
33 | GGCTAGGGGT | 1.57 ± 0.022
34 | GGGGGATCGC | 1.01 ± 0.025
35 | GTTGTAGTCT | 1.02 ± 0.023
36 | AGGTCGGATG | 1.004 ± 0.0056
37 | GGGGTATCGC | 1.002 ± 0.0095
38 | TATGTGAGGA | 0.989 ± 0.025
39 | CGGAATGATA | 1 ± 0.018
40 | GCGCAATCTG | 1.98 ± 0.52
41 | CACCGGTGTT | 1.02 ± 0.032
42 | AGGGGGCGCT | 1.01 ± 0.043
43 | ATGTTTTTGG | 1.1 ± 0.22
44 | TTTCTTGCGG | 1.012 ± 0.0019
45 | GGGGGGGTAC | 1.23 ± 0.62
46 | TGAGTCGTGT | 0.9674 ± 0.0054
47 | ATCGGCATTT | 1.027 ± 0.0084
48 | TCAAATAGGC | 1.016 ± 0.01
49 | GTTAGCTAAT | 0.987 ± 0.034
50 | CTCAGGACAG | 0.995 ± 0.044

Row | Sequence | switch fluorescence ratio
51 | TTGACAGT | 0.9777 ± 0.0022
52 | TATTTTAGGA | 0.9743 ± 0.003
53 | ATTAGGTCTA | 1 ± 0.014
54 | CTTTCATCTA | 1.01 ± 0.03
55 | TTAGGACAGC | 1.02 ± 0.021
56 | GGTCGAAAAC | 1.06 ± 0.11
57 | GATAATTGGT | 0.998 ± 0.012
58 | TTTAGTTGGT | 1 ± 0.08
59 | GCGGGGTACT | 1.11 ± 0.055
60 | TAGGAGGTAC | 1.01 ± 0.054
61 | CGGCCTGATA | 1.01 ± 0.028
62 | TTAGTGGGGG | 0.998 ± 0.029
63 | TTTGGGAGGC | 1.01 ± 0.034
64 | GGGAACCGGG | 1.2 ± 0.33
65 | AGAGGGGGTA | 0.997 ± 0.022
66 | TTTGTTTGCG | 1.03 ± 0.032
67 | CGTGTGGCTG | 0.992 ± 0.034
68 | GATAGTAGC | 0.978 ± 0.024
69 | GAATGAAGAA | 0.9989 ± 0.0081
70 | AGGGTCGCTG | 1.016 ± 0.0011
71 | GGGGAGGGGC | 1.01 ± 0.065
72 | AGGGCAATAT | 3.84 ± 0.48
73 | TTCCGGGGGC | 1.61 ± 0.98
74 | ATTTTGATAC | 1.01 ± 0.044
75 | TGACGTCTGG | 1.015 ± 0.0071

Row | Sequence | switch fluorescence ratio
76 | CTTGGGACTT | 1 ± 0.05
77 | TTGGTAAAAA | 1.25 ± 0.41
78 | AAGCAGTAGC | 1.05 ± 0.0043
79 | GCTGTTGTTG | 0.9918 ± 0.0051
80 | TGGTATTCGC | 1.01 ± 0.023
81 | AGCTGGGGGA | 1.05 ± 0.015
82 | GATATAGGGT | 0.983 ± 0.018
83 | TCCGGCGGCC | 1.09 ± 0.024
84 | TTGTTGGGCA | 1.01 ± 0.032
85 | CTAATATTAA | 0.999 ± 0.018
86 | CCTGTTCCGA | 1.19 ± 0.028
87 | GTTTTGGTAC | 1.01 ± 0.038
88 | CTGTGGGTTC | 1 ± 0.016
89 | GTGGATATGG | 0.995 ± 0.043
90 | TGTGTTATTT | 0.999 ± 0.024
91 | CCGGGCAAGA | 5.5 ± 1.4
92 | GGATGGTTTT | 1.02 ± 0.018
93 | ACGTAGGGGT | 1.21 ± 0.27
94 | ATTGTTTTGC | 1.009 ± 0.0025
95 | TCCCCAATAA | 3.11 ± 0.39
96 | ATCTAAAAGG | 1.01 ± 0.059
97 | CGGTCTTACT | 1.02 ± 0.02
98 | GGGTTAATCG | 1 ± 0.022
99 | AATGGTATGT | 1.032 ± 0.0088
100 | GTCGTAGCTT | 1.058 ± 0.0089

Row | Sequence | switch fluorescence ratio
101 | AGAAACGGAA | 1.27 ± 0.35
102 | TTTATACTCT | 1.08 ± 0.026
103 | GCACGGGGGT | 1.05 ± 0.045
104 | TTAATTATCT | 1.01 ± 0.051
105 | CAGTTGGATT | 1.01 ± 0.04
106 | CCAGTAGTTA | 0.999 ± 0.015
107 | TAGGGTCGG | 1 ± 0.053
108 | CTGGTCCGGC | 1.01 ± 0.078
109 | AAATTCCTAC | 1.01 ± 0.015
110 | TTTTTATAT | 0.983 ± 0.031
111 | TAGAAAGTTG | 0.953 ± 0.083
112 | GTGATGGTT | 0.984 ± 0.03
113 | AGGGATAGAT | 0.99 ± 0.026
114 | TAAGGGTGGC | 1.04 ± 0.035
115 | CGTGGCAGGA | 1.03 ± 0.021
116 | TAATGGTTGA | 1.02 ± 0.029
117 | CAGTTTCCTC | 1.08 ± 0.015
118 | TTGTTGAAAT | 1.03 ± 0.074
119 | AGGGATGTTG | 0.995 ± 0.013
120 | TCGCGAAATG | 0.968 ± 0.025
121 | GGTATTTGTA | 0.991 ± 0.031
122 | TCAGTTTATG | 0.961 ± 0.011
123 | TATGGTCAGT | 0.968 ± 0.047
124 | TAGCTTCTCC | 1.34 ± 0.033
125 | TTGAGTACTA | 1.01 ± 0.022

Row | Sequence | switch fluorescence ratio
126 | AGCGTCGTTC | 1.03 ± 0.023
127 | GCGTTAATGG | 1 ± 0.02
128 | TCGACCATCG | 0.974 ± 0.033
129 | TTAGCGGTCA | 1.01 ± 0.021
130 | TAAATGCCGG | 1.14 ± 0.26
131 | TGAGAGGATG | 0.99 ± 0.021
132 | TAGGAGGGTG | 1.01 ± 0.035
133 | CGGGTTATGT | 0.992 ± 0.044
134 | ACCTGATGTC | 1.06 ± 0.015
135 | TGGGCGACCG | 0.99 ± 0.021
136 | AGGATCAACG | 0.984 ± 0.034
137 | TGCCAGTGGG | 1.04 ± 0.068
138 | CTGGTGTGGA | 1.034 ± 0.0058
139 | TATTGCTGCT | 0.983 ± 0.032
140 | TATAATTGGG | 0.9921 ± 0.0015
141 | TTTTTAGGGC | 1.02 ± 0.059
142 | GTTTACGTGG | 1.01 ± 0.015
143 | GTAGGCATGG | 1 ± 0.029
144 | TACTGGCTGT | 1.01 ± 0.029
145 | GCTATAAGGG | 1 ± 0.036
146 | TGCGACAGGG | 0.988 ± 0.013
147 | GGTACAGTTA | 0.985 ± 0.016
148 | AAAAAAAGGT | 1.021 ± 0.01
149 | CTTCTCTAGT | 0.9742 ± 0.0069
150 | CATAATTGGG | 0.995 ± 0.028

Row | Sequence | switch fluorescence ratio
151 | GATGGTTGCG | 1.02 ± 0.022
152 | AGCTGAAGTT | 0.989 ± 0.036
153 | TTCGCTCGAG | 1 ± 0.017
154 | AACCGATGCT | 1.094 ± 0.005
155 | TTCGATATTT | 0.982 ± 0.017
156 | TGGTTCAGTG | 0.993 ± 0.048
157 | GAGTCGGGGG | 0.985 ± 0.01
158 | CTAAGGGAAG | 0.9781 ± 0.00035
159 | ATTCATTTTC | 1.02 ± 0.015
160 | TTCCGGTAAC | 2.07 ± 0.13
161 | GTGGAAATAG | 1.01 ± 0.05
162 | TAGAGATGGT | 0.962 ± 0.024
163 | GGTGAGAGTT | 0.956 ± 0.0087
164 | CGACTGATAT | 1.078 ± 0.0078
165 | TGCGCCTACC | 1.28 ± 0.058
166 | TTTTATAAGA | 1.05 ± 0.075
167 | TTAGATGGGA | 1.005 ± 0.0047
168 | TTGAACGTTT | 0.974 ± 0.019
169 | ATCCGAGCAT | 4.654 ± 0.039
170 | TCAGCATGTA | 1.04 ± 0.019
171 | TTAGTTTTAG | 1.008 ± 0.0056
172 | CTTTGCGTTT | 1.02 ± 0.093
173 | ATGTCCGGG | 0.968 ± 0.045
174 | TGTTCCGTAT | 0.993 ± 0.044
175 | ATTACCCTCG | 1.02 ± 0.035

Row | Sequence | switch fluorescence ratio
176 | AAATCCGCG | 1.28 ± 0.031
177 | TATTTAGAAG | 1.02 ± 0.054
178 | GTCAGGGGGT | 1.04 ± 0.068
179 | TTTATCGTCT | 1.12 ± 0.068
180 | CGTCAGCACT | 1.79 ± 0.04
181 | GCGTTGCATT | 1 ± 0.017
182 | GATTAATGGG | 0.995 ± 0.023
183 | TTGGGGCACG | 0.99 ± 0.02
184 | TCCGTTGTTT | 1.03 ± 0.044
185 | CTTGTCGAGG | 0.986 ± 0.042
186 | CGGGTGACGA | 1.03 ± 0.04
187 | CGATTAGTTG | 0.998 ± 0.032
188 | ATAGTCAAGG | 0.982 ± 0.028
189 | TGAACGGATC | 1.03 ± 0.008
190 | ACCTTAAGGG | 1.01 ± 0.015
191 | AAAAGCTTAT | 1.05 ± 0.03
192 | AAGTGGATAT | 0.999 ± 0.024
193 | ATGTTTGGCC | 1.04 ± 0.041
194 | AGGACTGGGG | 1.01 ± 0.037
195 | AGTTGTCTCT | 0.979 ± 0.035
196 | AGGGACTTTA | 1.0332 ± 0.00011
197 | GGGGATAAGT | 1.04 ± 0.054
198 | TAAGCAAAAG | 1.19 ± 0.1
199 | ATATCATTCA | 1.01 ± 0.019
200 | TATCACTTTA | 1.088 ± 0.0043
